US12091446 (NATIONAL TECHNOLOGY AND ENGINEERING SOLUTIONS OF SANDIA, dated 2024)
Read-outs that look alike come from different tables or passages of the source.

Columns and labels:
[1] = target: T1, SARS-COV-2 Wuhan (WT) RBD (SARS-COV-2, UniProt P0DTC2 319-541)
SARS-COV-2 Delta RBD [2] = target: T2, SARS-COV-2 Delta RBD (SARS-COV-2, UniProt P0DTC2 319-541)
[3] = target: T3, SARS-COV-2 spike, Beta variant (B.1.351) (SARS-COV-2, UniProt P0DTC2 14-1273); experiment: cell-based or functional assay
[4] = target: T4, SARS-COV-2 spike, Gamma variant (P.1) (SARS-COV-2, UniProt P0DTC2 14-1273); experiment: cell-based or functional assay
[5] = target: T5, SARS-COV-2 spike, Delta variant (B.1.617.2) (SARS-COV-2, UniProt P0DTC2 14-1273); experiment: cell-based or functional assay
[6] = target: T6, SARS-COV-2 spike, Lambda variant (C.37) (SARS-COV-2, UniProt P0DTC2 14-1273); experiment: cell-based or functional assay
[7] = target: T7, SARS-COV-2 spike, Mu variant (B.1.621) (SARS-COV-2, UniProt P0DTC2 14-1273); experiment: cell-based or functional assay
[8] = target: T3, SARS-COV-2 spike, Beta variant (B.1.351); experiment: cell-based or functional assay; remark: listed apart in the source
[9] = target: T4, SARS-COV-2 spike, Gamma variant (P.1); experiment: cell-based or functional assay; remark: listed apart in the source
[10] = target: T5, SARS-COV-2 spike, Delta variant …; experiment: cell-based or functional assay; remark: listed apart in the source
[11] = target: T6, SARS-COV-2 spike, Lambda variant (C.37); experiment: cell-based or functional assay; remark: listed apart in the source
[12] = target: T7, SARS-COV-2 spike, Mu variant (B.1.621); experiment: cell-based or functional assay; remark: listed apart in the source
SARS-COV-2 Delta RBD [13] = target: T2, SARS-COV-2 Delta RBD; experiment: ELISA titration (A450 against Nb-hFc ug/mL) on SARS-CoV-2 Delta RBD
[14] = target: T1, SARS-COV-2 Wuhan (WT) RBD; remark: listed apart in the source
[15] = target: T8, SARS-COV-2 spike, Omicron variant (BA.1) (SARS-COV-2, UniProt P0DTC2 14-1273); experiment: cell-based or functional assay
[16] = target: T1, SARS-COV-2 Wuhan (WT) RBD; remark: listed apart in the source
[17] = target: T8, SARS-COV-2 spike, Omicron variant (BA.1); experiment: cell-based or functional assay; remark: listed apart in the source

Binder	Kd [1]	Kd (SARS-COV-2 Delta RBD [2])	EC50, neutralization of spike pseudotyped virus [3]	EC50, neutralization of spike pseudotyped virus [4]	EC50, neutralization of spike pseudotyped virus [5]	EC50, neutralization of spike pseudotyped virus [6]	EC50, neutralization of spike pseudotyped virus [7]	EC50, neutralization of spike pseudotyped virus [8]	EC50, neutralization of spike pseudotyped virus [9]	EC50, neutralization of spike pseudotyped virus [10]	EC50, neutralization of spike pseudotyped virus [11]	EC50, neutralization of spike pseudotyped virus [12]	binding result (SARS-COV-2 Delta RBD [13])	Kd [14]	EC50, neutralization of spike pseudotyped virus [15]	Kd [16]	EC50, neutralization of spike pseudotyped virus [17]
KP2C6 Nb-huFc (Fc fusion) EVQLQASGGGFVQPGGSLRLSCAASGRTFTSFHMGWFRQAPGKEREFVSAISSGDDGTQYYADSVKGRFTISRDNSKNTVYLQMNSLRAEDTATYYCAAYTTTTVPQYWGQGTQVTVSS	4.46 nM	62.6 nM	411 nM	408 nM	18.3 nM	612 nM	305 nM										
AP1D4 Nb-huFc (Fc fusion) EVQLQASGGGFVQPGGSLRLSCAASGHTFDAHRMGWFRQAPGKEREFVSAISSWGQSSTYYADSVKGRFTISRDNSKNTVYLQMNSLRAEDTATYYCAQTDEGNQYVYWGQGTQVTVSS	1.09 nM							627 nM	13.5 nM	758 nM	490 nM	1.92 nM					
BP2A3 Nb-huFc (Fc fusion) EVQLQASGGGFVQPGGSLRLSCAASGRTFSAYSMGWFRQAPGKEREFVSAISAGDGAASYYADSVKGRFTISRDNSKNTVYLQMNSLRAEDTATYYCAHYYTTSATLDYAYWGQGTQVTVSS	0.315 nM		4.44 nM	3.73 nM			466 nM						no binding (tested: 10 ug/mL)				
AP1A5 Nb-huFc (Fc fusion) EVQLQASGGGFVQPGGSLRLSCAASGSTASHYTMGWFRQAPGKEREFVSAISSGRDHAKQYADSVKGRFTISRDNSKNTVYLQMNSLRAEDTATYYCAYEEINATQKDTLYWGQGTQVTVSS	1.28 nM							198 nM	533 nM	73.3 nM	79.1 nM	7.18 nM	no binding (tested: 10 ug/mL)				
BP1B1 Nb-huFc (Fc fusion) EVQLQASGGGFVQPGGSLRLSCAASGRTFSGYIMGWFRQAPGKEREFVSAISQGDSYASYYADSVKGRFTISRDNSKNTVYLQMNSLRAEDTATYYCALYDINTVPYYWGQGTQVTVSS	0.266 nM		3.5 nM	3.68 nM			6.97 nM						no binding (tested: 10 ug/mL)	371 nM	403 nM		
KP1C9 Nb-huFc (Fc fusion) EVQLQASGGGFVQPGGSLRLSCAASGRTFDAYSMGWFRQAPGKEREFVSAISSWSDDWTAYADSVKGRFTISRDNSKNTVYLQMNSLRAEDTATYYCALQNTKEDRLYWGQGTQVTVSS	0.119 nM	25.5 nM	203 nM	80.2 nM	1.22 nM	0.13 nM	2.02 nM										
AP1C3 Nb-huFc (Fc fusion) EVQLQASGGGFVQPGGSLRLSCAASGRTYRGYSMGWFRQAPGKEREFVSAISSWSDDWTAYADSVKGRFTISRDNSKNTVYLQMNSLRAEDTATYYCAWQYIDEIQYYWGQGTQVTVSS	0.133 nM	33.3 nM						338 nM	1.07 nM	191 nM	0.02 nM	0.83 nM					
DP4F2 Nb-huFc (Fc fusion) EVQLQASGGGFVQPGGSLRLSCAASGTTYSERVMGWFRQAPGKEREFVSAISSGQSDQTYYYADSVKGRFTISRDNSKNTVYLQMNSLRAEDTATYYCAPFAGDANLPREWYWGQGTQVTVSSA	9.51 nM	1.91 nM			26.8 nM		25.1 nM										
BP1A10 Nb-huFc (Fc fusion) EVQLQASGGGFVQPGGSLRLSCAASGQPSDRYIMGWFRQAPGKEREFVSAISQGAANKTAYADSVKGRFTISRDNSKNTVYLQMNSLRAEDTATYYCATHFNWQNYSYWGQGTQVTVSS	0.548 nM							4.32 nM	3.95 nM			26.1 nM					
BP2H9 Nb-huFc (Fc fusion) EVQLQASGGGFVQPGGSLRLSCAASGQTFTHVPMGWFRQAPGKEREFVSAISDTSGFETYYADSVKGRFTISRDNSKNTVYLQMNSLRAEDTATYYCAWAYDQFNWNYWGQGTQVTVSS			0.21 nM	0.26 nM			922 nM										
AP1B6 Nb-huFc (Fc fusion) EVQLQASGGGFVQPGGSLRLSCAASGSAFQIYAMGWFRQAPGKEREFVSAISSTDSETDHYADSVKGRFTISRDNSKNTVYLQMNSLRAEDTATYYCAVNGFDYAHSKAGPQVYWGQGTQVTVSS	0.585 nM							0.12 nM	0.26 nM	586 nM	414 nM	1.54 nM	no binding (tested: 10 ug/mL)				
BP2A6 Nb-huFc (Fc fusion) EVQLQASGGGFVQPGGSLRLSCAASGQTFSHYIMGWFRQAPGKEREFVSAISAGQGHATYYADSVKGRFTISRDNSKNTVYLQMNSLRAEDTATYYCAKYQDTIAPLYWGQGTQVTVSS	0.0766 nM							0.34 nM	0.63 nM	875 nM	883 nM	2.53 nM	no binding (tested: 10 ug/mL)			149 nM	43.3 nM
KP1B5 Nb-huFc (Fc fusion) EVQLQASGGGFVQPGGSLRLSCAASGFTFDWSAMGWFRQAPGKEREFVSAISSSTSESTTYADSVKGRFTISRDNSKNTVYLQMNSLRAEDTATYYCATYYGGKTVEQDFYWGQGTQVTVSS			482 nM	214 nM	324 nM	472 nM	367 nM										
